Reference: patent publication US20180306789A1 (IMMATICS BIOTECHNOLOGIES, published 2018)
Blank lines part the entries; values can stand above or below the binder they belong to.

Molecular target: HLA-A*02-presented DCAF4L2-001 on target cells (human)
Test: cell-based or functional assay

EC50 of target peptide titration (IFNγ release): ~11.8 nM
B1: TCR R53P2A9 (TCR, V domains shown)
V domain 1: QTVTQSQPEMSVQEAETVTLSCTYDTSESDYYLFWYKQPPSRQMILVIRQEAYKQQNATENRFSVNFQKAAKSFSLKISDSQLGDAAMYFCAYNSYAGGTSYGKLTFGQGTILTVHP
V domain 2: DAGVTQSPTHLIKTRGQQVTLRCSPISGHKSVSWYQQVLGQGPQFIFQYYEKEERGRGNFPDRFSARQFPNYSSELNVNALLLGDSALYLCASSLDGTSEQYFGPGTRLTVTE

EC50 of target peptide titration (IFNγ release): ~8.5 nM
B2: TCR R52P2G11 (TCR, V domains shown)
V domain 1: RGNGKNQVEQSPQSLIILEGKNCTLQCNYTVSPFSNLRWYKQDTGRGPVSLTIMTFSENTKSNGRYTATLDADTKQSSLHITASQLSDSASYICVVSAYGKLQFGAGTQVVVTP
V domain 2: DAGVIQSPRHEVTEMGQEVTLRCKPISGHNSLFWYRQTMMRGLELLIYFNNNVPIDDSGMPEDRFSAKMPNASFSTLKIQPSEPRDSAVYFCASSLGSPDGNQPQHFGDGTRLSILE

EC50 of target peptide titration (IFNγ release): ~3.6 nM
B3: TCR R36P3F9 (TCR, V domains shown)
V domain 1: SQQGEEDPQALSIQEGENATMNCSYKTSINNLQWYRQNSGRGLVHLILIRSNEREKHSGRLRVTLDTSKKSSSLLITASRAADTASYFCATVSNYQLIWGAGTKLIIKP
V domain 2: EAQVTQNPRYLITVTGKKLTVTCSQNMNHEYMSWYRQDPGLGLRQIYYSMNVEVTDKGDVPEGYKVSRKEKRNFPLILESPSPNQTSLYFCASSSTSGGLSGETQYFGPGTRLLVLE
